# Source: patent publication US20260242735A1 (UNIVERSIT T BASEL, published 2026)
# B1: Refmab #4 (antibody, human IgG1, V domains shown)
# VH: QVQLVQSGAEVKKPGESVKVSCKASGYTFTNYGMNWVKQAPGQGLEWMGWINTYTGEPTYADKFQGRVTMTTDTSTSTAYMEIRNLGGDDTAVYYCARWSWSDGYYVYFDYWGQGTSVTVSS
# VL: DIVMTQSPDSLTVSLGERTTINCKSSQSVLDSSTNKNSLAWYQQKPGQPPKLLLSWASTRESGIPDRFSGSGSGTDFTLTIDSPQPEDSATYYCQQSAHFPITFGQGTRLEIK
# notes: Tested in IgG format; human IgG1 Fc silent (PG-LALA)
# B2: Refmab #1 (antibody, human IgG1, V domains shown)
# VH: EVQLVQSGAEVKKPGSSVKVSCKASGYTITDSNIHWVRQAPGQSLEWIGYIYPYNGGTDYNQKFKNRATLTVDNPTNTAYMELSSLRSEDTAFYYCVNGNPWLAYWGQGTLVTVSS
# VL: DIQLTQSPSTLSASVGDRVTITCRASESLDNYGIRFLTWFQQKPGKAPKLLMYAASNQGSGVPSRFSGSGSGTEFTLTISSLQPDDFATYYCQQTKEVPWSFGQGTKVEVK
# notes: Tested in IgG format; human IgG1 (Absolute Antibody hP67.6, Cat. No. Ab00283-10.0); also called hP67.6
# B3: Refmab #3 (antibody, human IgG1, V domains shown)
# VH: QVQLVQSGAEVKKPGSSVKVSCKASGYTFTDYNMHWVRQAPGQGLEWIGYIYPYNGGTGYNQKFKSKATITADESTNTAYMELSSLRSEDTAVYYCARGRPAMDYWGQGTLVTVSS
# VL: DIQMTQSPSSLSASVGDRVTITCRASESVDNYGISFMNWFQQKPGKAPKLLIYAASNQGSGVPSRFSGSGSGTDFTLTISSLQPDDFATYYCQQSKEVPWTFGQGTKVEIK
# notes: as for B1
# B4: Refmab #2 (antibody, human IgG1, V domains shown)
# VH: QVQLVQSGAEVKKPGSSVKVSCKASGGTFSDYAISWVRQAPGQGLEWMGRIIPILGVADYAQKFQGRVTITADKSTRTAYMELSSLRSEDTAVYYCARNWADAFDIWGQGTMVTVSS
# VL: DIQLTQSPSSLSASVGDRVTITCRASQGISSVLAWYQQKPGKAPKLLIYDASSLESGVPSRFSGSGSGTDFTLTISSLQPEDFATYYCQQFDSSITFGQGTKLEIK
# notes: as for B1
# Target: human CD33 variant Y127R (human, UniProt P20138 18-364)
# Assay: flow cytometry, IgG on cells expressing the mutant
# Sequence of human CD33 variant Y127R (P20138 18-364 Y127R limits assumed): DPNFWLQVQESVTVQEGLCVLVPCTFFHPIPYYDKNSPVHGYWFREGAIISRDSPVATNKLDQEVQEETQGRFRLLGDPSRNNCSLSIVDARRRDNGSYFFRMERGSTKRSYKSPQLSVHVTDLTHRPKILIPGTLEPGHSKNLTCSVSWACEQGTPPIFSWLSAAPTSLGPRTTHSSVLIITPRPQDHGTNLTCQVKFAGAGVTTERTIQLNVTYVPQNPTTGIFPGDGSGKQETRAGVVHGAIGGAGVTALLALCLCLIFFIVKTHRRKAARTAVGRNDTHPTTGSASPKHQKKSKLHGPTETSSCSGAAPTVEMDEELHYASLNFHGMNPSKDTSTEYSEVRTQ
row,Binder,Mean % WT Binding
1,B1,116 % of WT
2,B2,84 % of WT
3,B3,65.9 % of WT
4,B4,110 % of WT

# Target: human CD33 variant Y127H (human, UniProt P20138 18-364)
# Assay: flow cytometry, IgG on cells expressing the mutant
# Sequence of human CD33 variant Y127H (P20138 18-364 Y127H limits assumed): as the sequence (P20138 18-364 Y127R limits assumed) above, with R110H counted along it
row,Binder,Mean % WT Binding
1,B1,105 % of WT
2,B2,97.1 % of WT
3,B3,75.4 % of WT
4,B4,114 % of WT

# Target: human CD33 variant P48M (human, UniProt P20138 18-364)
# Assay: flow cytometry, IgG on cells expressing the mutant
# Sequence of human CD33 variant P48M (P20138 18-364 P48M limits assumed): as the sequence (P20138 18-364 Y127R limits assumed) above, with P31M, R110Y counted along it
row,Binder,Mean % WT Binding
1,B1,1.3 % of WT
2,B2,110 % of WT
3,B3,106 % of WT
4,B4,87.5 % of WT

# Target: human CD33 variant P48D (human, UniProt P20138 18-364)
# Assay: flow cytometry, IgG on cells expressing the mutant
# Sequence of human CD33 variant P48D (P20138 18-364 P48D limits assumed): as the sequence (P20138 18-364 Y127R limits assumed) above, with P31D, R110Y counted along it
row,Binder,Mean % WT Binding
1,B1,2 % of WT
2,B2,109 % of WT
3,B3,100 % of WT
4,B4,10.4 % of WT

# Target: human CD33 variant R122G (human, UniProt P20138 18-364)
# Assay: flow cytometry, IgG on cells expressing the mutant
# Sequence of human CD33 variant R122G (P20138 18-364 R122G limits assumed): as the sequence (P20138 18-364 Y127R limits assumed) above, with R105G, R110Y counted along it
row,Binder,Mean % WT Binding
1,B1,91.3 % of WT
2,B2,109 % of WT
3,B3,114 % of WT
4,B4,12.2 % of WT

# Target: human CD33 variant Y49D (human, UniProt P20138 18-364)
# Assay: flow cytometry, IgG on cells expressing the mutant
# Sequence of human CD33 variant Y49D (P20138 18-364 Y49D limits assumed): as the sequence (P20138 18-364 Y127R limits assumed) above, with Y32D, R110Y counted along it
row,Binder,Mean % WT Binding
1,B1,2.5 % of WT
2,B2,93.4 % of WT
3,B3,94.4 % of WT
4,B4,1.4 % of WT

# Target: human CD33 variant P48K (human, UniProt P20138 18-364)
# Assay: flow cytometry, IgG on cells expressing the mutant
# Sequence of human CD33 variant P48K (P20138 18-364 P48K limits assumed): as the sequence (P20138 18-364 Y127R limits assumed) above, with P31K, R110Y counted along it
row,Binder,Mean % WT Binding
1,B1,0 % of WT
2,B2,99.4 % of WT
3,B3,67.3 % of WT
4,B4,106 % of WT

# Target: human CD33 variant Y49I (human, UniProt P20138 18-364)
# Assay: flow cytometry, IgG on cells expressing the mutant
# Sequence of human CD33 variant Y49I (P20138 18-364 Y49I limits assumed): as the sequence (P20138 18-364 Y127R limits assumed) above, with Y32I, R110Y counted along it
row,Binder,Mean % WT Binding
1,B1,94 % of WT
2,B2,109 % of WT
3,B3,109 % of WT
4,B4,94.3 % of WT

# Target: human CD33 variant S131G (human, UniProt P20138 18-364)
# Assay: flow cytometry, IgG on cells expressing the mutant
# Sequence of human CD33 variant S131G (P20138 18-364 S131G limits assumed): as the sequence (P20138 18-364 Y127R limits assumed) above, with R110Y, S114G counted along it
row,Binder,Mean % WT Binding
1,B1,96.9 % of WT
2,B2,95.1 % of WT
3,B3,100 % of WT
4,B4,112 % of WT

# Target: human CD33 variant I47F (human, UniProt P20138 18-364)
# Assay: flow cytometry, IgG on cells expressing the mutant
# Sequence of human CD33 variant I47F (P20138 18-364 I47F limits assumed): as the sequence (P20138 18-364 Y127R limits assumed) above, with I30F, R110Y counted along it
row,Binder,Mean % WT Binding
1,B1,102 % of WT
2,B2,101 % of WT
3,B3,102 % of WT
4,B4,2.2 % of WT

# Target: human CD33 variant I47Q (human, UniProt P20138 18-364)
# Assay: flow cytometry, IgG on cells expressing the mutant
# Sequence of human CD33 variant I47Q (P20138 18-364 I47Q limits assumed): as the sequence (P20138 18-364 Y127R limits assumed) above, with I30Q, R110Y counted along it
row,Binder,Mean % WT Binding
1,B1,80.1 % of WT
2,B2,104 % of WT
3,B3,106 % of WT

# Target: human CD33 variant Y50Q (human, UniProt P20138 18-364)
# Assay: flow cytometry, IgG on cells expressing the mutant
# Sequence of human CD33 variant Y50Q (P20138 18-364 Y50Q limits assumed): as the sequence (P20138 18-364 Y127R limits assumed) above, with Y33Q, R110Y counted along it
row,Binder,Mean % WT Binding
1,B1,3.2 % of WT
2,B2,93.9 % of WT
3,B3,95.4 % of WT
4,B4,113 % of WT

# Target: human CD33 variant Y50V (human, UniProt P20138 18-364)
# Assay: flow cytometry, IgG on cells expressing the mutant
# Sequence of human CD33 variant Y50V (P20138 18-364 Y50V limits assumed): as the sequence (P20138 18-364 Y127R limits assumed) above, with Y33V, R110Y counted along it
row,Binder,Mean % WT Binding
1,B1,1.7 % of WT
2,B2,94.9 % of WT
3,B3,108 % of WT
4,B4,126 % of WT

# Target: human CD33 variant V56R (human, UniProt P20138 18-364)
# Assay: flow cytometry, IgG on cells expressing the mutant
# Sequence of human CD33 variant V56R (P20138 18-364 V56R limits assumed): as the sequence (P20138 18-364 Y127R limits assumed) above, with V39R, R110Y counted along it
row,Binder,Mean % WT Binding
1,B1,99.4 % of WT
2,B2,98.5 % of WT
3,B3,97.7 % of WT
4,B4,107 % of WT

# Target: human CD33 variant K52E (human, UniProt P20138 18-364)
# Assay: flow cytometry, IgG on cells expressing the mutant
# Sequence of human CD33 variant K52E (P20138 18-364 K52E limits assumed): as the sequence (P20138 18-364 Y127R limits assumed) above, with K35E, R110Y counted along it
row,Binder,Mean % WT Binding
1,B1,51.4 % of WT
2,B2,98.6 % of WT
3,B3,106 % of WT
4,B4,52.4 % of WT
